{
  "source": "patent US20200362049A1",
  "about": "(BLACK BELT THERAPEUTICS, published 2020)",
  "binders": {"B1": {"name": "Daratumumab (antibody, human IgG1, kappa, V domains shown)", "VH": "EVQLLESGGGLVQPGGSLRLSCAVSGFTFNSFAMSWVRQAPGKGLEWVSAISGSGGGTYYADSVKGRFTISRDNSKNTLYLQMNSLRAEDTAVYFCAKDKILWFGEPVFDYWGQGTLVTVSS", "VL": "not shown"}},
  "key": {"Human CD38 on cells [1]": {"molecular_target": "T1, Human CD38 on cells (human, UniProt P28907 1-300)", "test": "cell-based or functional assay"}, "Human CD38 on cells [2]": {"molecular_target": "T1, Human CD38 on cells", "test": "cell-based or functional assay", "remark": "listed apart in the source"}},
  "data": [
    {"binder": "B1", "values": [
      {"measurement": "ADCC, target Daudi cells: EC50 ug/ml DARA", "setting": "Human CD38 on cells [1]", "result": 0.0139, "unit": "µg/mL"},
      {"measurement": "CDC, 10% complement, target Daudi cells: EC50 ug/ml DARA (experiment 10)", "setting": "Human CD38 on cells [2]", "result": 0.11, "unit": "µg/mL"},
      {"measurement": "CDC, 10% complement, target Daudi cells: EC50 ug/ml DARA (experiment 11)", "setting": "Human CD38 on cells [2]", "result": 0.07, "unit": "µg/mL"}
    ]}
  ]
}
